Results published in publication PMC5357137.

Columns and labels:
[1] = system: MuA transposase in cleaved-donor complex (CDC, WT transpososome) (bacteriophage Mu); assay: fluorescence anisotropy; settings: Mg2+, CDC with 3'ddA Mu ends, Anisotropy: purified CDCs diluted in reaction buffer with MgCl2 (+/- DMSO; concentrations, salt and pH not in material), 6 nM Atto565 target DNA, 1 h, room …
[2] = system: MuA delta domain III (catalytic subunits of delta domain III CDC);SinMu chimera (non-catalytic subunits) (bacteriophage Mu;bacteriophage Mu; Sin recombinase (organism not stated)); assay: fluorescence anisotropy; settings: Mg2+, DMSO; CDC with 3'ddA Mu ends; single G:G mismatch at center; Anisotropy: purified CDCs diluted in reaction buffer with MgCl2 (+/- DMSO; concentrations, salt and pH not in material), 6 nM Atto565 target DNA, 1 h, room …

Substance	Kd ([1]; DMSO)	Kd ([1]; DMSO, Hill coefficient 2.6, single G:G mismatch at center)	Kd ([1]; no DMSO, Hill coefficient 3.3, single G:G mismatch at center)	Kd [2]
target DNA, fully base paired, 35 bp	0.029 µM			
target DNA with central G:G mismatch, 35 bp		0.015 µM	0.015 µM	0.038 µM
